# *1 amine or outer side, *2 acyl side, *3 side chain or, on linkers, in order; H or OH if unused. Where no end group is shown, it is not given here. [ ]: non-standard residue; d: D form. Cys(CH2-Ph) = S-benzyl-Cys, O=C([C@H](CSCc1ccccc1)N[*:1])[*:2]; Phe(3-CH2NH2) = O=C([C@H](Cc1cccc(CN[*:3])c1)N[*:1])[*:2]; d(pS) = N[C@H](COP(=O)(O)O)C(=O)O; pS = N[C@@H](COP(=O)(O)O)C(=O)O; Trp(3-Me) = 3-methyltryptophan; βAla = NCCC(=O)O
# How the values were obtained:
# Assay type in all cases: cell-based
# PCSK9-WT protein [1] = target: T1, PCSK9-WT protein (Homo sapiens, UniProt Q8NBP7); assay: Cellular diI-LDL uptake in HuH7 cells with PCSK9-WT; details: HuH7, 1.0 μg/ml PCSK9-WT, 100 uM peptide (FIG. 2)
# T1 construct: V5
# Description: (§1) HuH7 cells were incubated in a 96-well plate for a total of 20 h in the absence (Cnt) or presence of 1.0 μg/ml PCSK9-WT protein alone (WT) or mixed with 100 uM of various SRX peptides. After 16 h, dil-LDL (5 ug/ml) was added to the incubation mixtures. After 4 h, fluorescence was measured (Ex: 520 nm/Em: 575 nm; cutoff: 550 nm). Dil-LDL uptake is calculated as RFU corrected for the number of cells.
# (§2) LDL internalization was measured by uptake of a fluorescently tagged LDL molecule (diI-LDL) in the absence of exogenous PCSK9 (Cnt), in the presence of exogenous PCSK9 (normal PCSK9=WT, D374Y mutant PCSK9=DY), or in the presence of PCSK9 and a tested peptide (indicated as SRX##, or SRX if a single peptide results is shown in a graph).
# (§3) Cells, such as HepG2, HuH7, FL83B or a cell line transfected with a short-hairpin PCSK9 knockdown sequence such as HepG2/shPCSK9, HuH7/shPCSK9, FL83B/shPCSK9, were seeded at 2×10^4 cells/well in a 96-well plate and cultured at 37 degC in RPMI+10% FBS. After approximately 24 hours, the cell media was aspirated off and replaced with RPMI+3-5 mg/mL LPDS (Lipoprotein Deficient Serum, Millipore) media for further experimentation. Benjannet et al., “Effects of the prosegment and pH on the activity of PCSK9: evidence for additional processing events” J Biol Chem. 285(52): 40965-40978 (2010).
# (§4) Peptide activity was assessed by culturing cells with: i) no SRX peptide/PCSK9 protein complex (control, Cnt); ii) PCSK9 protein; and iii) SRX peptide/PCSK9 complex. Various permutations of these experimental conditions were also used, including: i) the addition of wild type PCSK9 (WT); ii) a mutant PCSK9 (e.g., D374Y mutant PCSK9, DY); iii) various SRX peptides and/or PCSK9 at the same concentration and/or combinations; iv) various SRX peptides and/or PCSK9 at different concentrations and/or combinations; v) the use of different cells, as mentioned above, with or without a transfected short-hairpin sequence; vi) a pre-incubation of the PCSK9 and SRX peptide (e.g., 1, hour, 2 hours, 3 hours, 4 hours etc.); vii) various temperatures including, but not limited to, body temperature (e.g., 37° C.), supraphysiologic temperature (e.g., 39° C.); and viii) with/without agitation (e.g., shaker or gentle periodic vortexing).
# (§5) Cells were cultured using one of the combinations of conditions described in the preceding paragraph for 16 hours. After 16 hours, a quantity of diI-LDL (Low density lipoprotein coupled with 1,1′-dioctadecyl-3,3,3′,3′-tetramethylindocarbocyanine perchlorate) needed to bring the media concentration to 5 ug/mL of diI-LDL was added to the culture well and cells continued to be cultured under these new conditions for 4 additional hours. At the end of the 4-hour incubation period (20 total hours of cell culture), the cellular uptake was halted with the addition of 4% formaldehyde in 10 uM Hoechst 33342 in a solvent such as deionized autoclaved water or PBS, and specimens were incubated at 20° C. for 20 minutes. Cell specimens were rinsed twice with PBS and then fluorescence measured with excitation at 360 nm and emission detected at 460 nm to measure DNA content. Cell specimens were then be incubated with a 0.1% SDS in a 0.1 N NaOH solution while being shaken for 10 minutes. Fluorescence of the diI-LDL in the specimens were quantified using excitation at 530 nm and resulting emission at 580 nm.
# Fluorescence measurements of diI-LDLR were normalized to estimated cell numbers, determined from the Hoechst fluorescence. Data was analyzed for the different experimental conditions and reported as percentage relative fluorescence units (RFU) of the Cnt specimen. Percent inhibition was calculated as the difference in RFU of a peptide exposed specimen to the RFU of PCSK9-no peptide, divided by the RFU difference in PCSK9-no peptide to RFU of Cnt specimen, also expressed as [(SRX:RFU)−(PCSK9-no peptide:RFU)]/[(PCSK9-no peptide:RFU)−(Cnt:RFU)]×100.
# PCSK9-D374Y protein = PCSK9-D374Y protein (Homo sapiens, UniProt Q8NBP7, D374Y); assay: Cellular diI-LDL uptake in HuH7 cells with PCSK9-D374Y
# Description: as §1, with “0.5” for “1.0”, “PCSK9-D374Y” for “PCSK9-WT”, “(DY)” for “(WT)”
# as §1, with “0.5” for “1.0”, “PCSK9 GOF-D374Y” for “PCSK9-WT”, “(DY)” for “(WT)”, “increasing concentrations” for “100 uM”
# as §2, §3, §4, §5
# Fluorescence measurements of diI-LDLR were normalized to estimated cell numbers, determined from the Hoechst fluorescence. […]
# PCSK9-WT protein [2] = target: T1, PCSK9-WT protein; assay: FACS analysis of cell surface LDLR in HuH7 cells with PCSK9-WT; details: HuH7 cells, FACS, exogenous WT PCSK9 plus peptide (FIG. 1, 100 μM)
# Description: HuH7 cells were incubated for 18 h in the absence (Cnt) or presence of 0.75 μg/ml PCSK9-WT protein alone (WT) or mixed with 100 μM of various SRX peptides. The level of LDLR at the cell surface was measured by FACS using anti human LDLR Ab and a suitable secondary Ab labeled with Alexa 647. Cell surface LDLR is reported relative to Cnt. % inhibition of activity was calculated as [SRX−WT]/[Cnt−WT]×100%.
# See, FIG. 1. In that experiment, the LDLR levels of a hepatocyte culture model (HuH7 cells) were measured by fluorescence activated cell sorting (FACS) in accordance with Example III. Cell surface LDLR is reported as a percentage of Basal levels of LDLR, indicated by the Cnt_Amm.Bic, Cnt_Ac.Acid, and Cnt bars in the top graph. See, FIG. 1 (top panel). LDLR levels in the presence of exogenous PCSK9 is indicated as WT_Amm.Bic, WT-Ac.Acid, and WT, and Exogenous PCSK9 in combination with a tested peptide is indicated as SRX##. The measured LDLR levels are reported as % versus basal controls (Cnt) of the respective group. […] This was further shown a percent inhibition (% inhibition was calculated as [SRX−WT]/[Cnt−WT]×100%) where positive modulation (increase) of LDLR level is reported as positive % inhibition, and negative modulation (decrease) of LDLR level is reported as negative % inhibition. See, FIG. 1 (bottom panel).
# Benjannet et al., “Effects of the prosegment and pH on the activity of PCSK9: evidence for additional processing events” J Biol Chem. 285(52): 40965-40978 (2010). The cells were then washed 3× with solution A (calcium/magnesium-free Dulbecco's PBS (Invitrogen) containing 0.5% bovine serum albumin (Sigma) and 1 g/liter glucose)). The cells were then incubated for 10 min at room temperature with 1× Versene solution (Invitrogen) followed by the addition of 5 ml of solution A. The cells were then incubated for 40 min in solution A containing a human LDLR mAb-C7 (1:100; Santa Cruz Biotechnology). Following washes, the cells were then incubated for 20 min in solution A containing a secondary antibody (Alexa Fluor 647 donkey anti-mouse antibody; 1:250; Molecular Probes).
# Following suspension in PBS containing 0.2% of propidium iodide, the cells were analyzed by FACS for both propidium iodide (dead cells) and LDLR in live cells with Alexa Fluor 647 using the FACS BD LSR (BD Biosciences).
# [3] = HuH7, 0.5 μg/ml PCSK9-D374Y, 100 uM peptide (FIG. 3)
# [4] = HuH7, 0.5 μg/ml PCSK9 GOF-D374Y, increasing concentrations of peptide (FIG. 4)
# T1 sequence (Q8NBP7 153-692): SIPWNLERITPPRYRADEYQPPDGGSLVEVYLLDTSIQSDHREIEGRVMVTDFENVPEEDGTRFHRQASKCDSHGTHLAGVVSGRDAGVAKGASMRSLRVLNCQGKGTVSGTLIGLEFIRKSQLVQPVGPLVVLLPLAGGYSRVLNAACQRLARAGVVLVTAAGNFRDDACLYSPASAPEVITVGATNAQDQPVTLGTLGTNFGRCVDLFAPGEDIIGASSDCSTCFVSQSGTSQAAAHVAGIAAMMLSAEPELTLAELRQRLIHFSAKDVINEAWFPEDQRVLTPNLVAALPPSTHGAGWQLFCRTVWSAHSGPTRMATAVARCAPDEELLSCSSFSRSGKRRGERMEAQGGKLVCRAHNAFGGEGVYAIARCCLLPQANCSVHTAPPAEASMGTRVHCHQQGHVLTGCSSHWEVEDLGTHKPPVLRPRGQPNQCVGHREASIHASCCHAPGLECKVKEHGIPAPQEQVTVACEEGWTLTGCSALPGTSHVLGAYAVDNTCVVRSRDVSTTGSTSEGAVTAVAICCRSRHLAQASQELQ
# Chain of PCSK9-D374Y protein (Q8NBP7 153-692 D374Y): as the sequence (Q8NBP7 153-692) above, with D222Y counted along it
substance,measurement,setting,value
Thr-Leu-Thr-Trp-Ser-Ser-Ser(p) (TLTWSS[pS]) [Compound 15],LDL internalization (dil-LDL % uptake vs Cnt),PCSK9-WT protein [1],negatively modulated (decreased)
same,LDL internalization (dil-LDL % uptake vs Cnt),PCSK9-D374Y protein; [3],negatively modulated (decreased)
Phe(4-Ph)-Ala-Ser(p)-morpholine [Compound 16],modulation of LDLR cell surface level,PCSK9-WT protein [2],negatively modulate (decrease)
same,LDL internalization (dil-LDL % uptake vs Cnt),PCSK9-WT protein [1],negatively modulated (decreased)
same,LDL internalization (dil-LDL % uptake vs Cnt),PCSK9-D374Y protein; [3],negatively modulated (decreased)
Thr-Leu-Cys(CH2-Ph)-Thr-Trp-Ser-Ser-Ser(p) [Compound 3],modulation of LDLR cell surface level,PCSK9-WT protein [2],positively modulate (increase)
same,LDL internalization (dil-LDL % uptake vs Cnt),PCSK9-WT protein [1],positively modulated (increased)
same,LDL internalization (dil-LDL % uptake vs Cnt),PCSK9-D374Y protein; [3],positively modulated (increased)
same,LDL internalization (dil-LDL % uptake vs Cnt),PCSK9-D374Y protein; [4],positively modulated (increased)
LDLFFS [Compound 9],LDL internalization (dil-LDL % uptake vs Cnt),PCSK9-WT protein [1],negatively modulated (decreased)
same,LDL internalization (dil-LDL % uptake vs Cnt),PCSK9-D374Y protein; [3],positively modulated (increased)
same,LDL internalization (dil-LDL % uptake vs Cnt),PCSK9-D374Y protein; [4],positively modulated (increased)
β-Ala-Phe(3-CH2NH2)-Val-D-Ser(p)-Phe-Trp ([βAla][Phe(3-CH2NH2)]V[d(pS)]FW) [Compound 2],modulation of LDLR cell surface level,PCSK9-WT protein [2],positively modulate (increase)
same,LDL internalization (dil-LDL % uptake vs Cnt),PCSK9-WT protein [1],positively modulated (increased)
same,LDL internalization (dil-LDL % uptake vs Cnt),PCSK9-D374Y protein; [3],positively modulated (increased)
same,LDL internalization (dil-LDL % uptake vs Cnt),PCSK9-D374Y protein; [4],positively modulated (increased)
Thr-Leu-Cys(CH2-Ph)-Thr-Trp(3-Me)-Ser-Ser-Ser(p) (TL[Cys(CH2-Ph)]T[Trp(3-Me)]SS[pS]) [Compound 7],LDL internalization (dil-LDL % uptake vs Cnt),PCSK9-WT protein [1],negatively modulated (decreased)
same,LDL internalization (dil-LDL % uptake vs Cnt),PCSK9-D374Y protein; [3],positively modulated (increased)
Ile-Leu-Asp-Leu-Ser-Tyr (ILDLSY; not fully specified (C-terminus); printed as Ile-Leu-Asp-Leu-Ser-Tyr) [Compound 10],LDL internalization (dil-LDL % uptake vs Cnt),PCSK9-WT protein [1],positively modulated (increased)
